Entries after “also recorded” stand apart in the source; their conditions may differ.
What was measured:
T84 monolayers = assay: Epithelial barrier recovery after calcium switch (TER, dextran flux); format: cell-based, human; conditions: 30 μg/ml, 20 m/ml, up to 24 hours, FIG. 9A
Experimental: T84 monolayers grown on permeable supports were subjected to transient calcium depletion by preincubation in Ca2+ free buffer (PBS) for 40 min to disassemble tight junctions, followed by switching back to calcium containing medium without (No Tx), or with sJAML or a control recombinant IgSF protein sSIRPa (30 μg/ml). Barrier recovery was measured as transepithelial resistance (TER) at time points as indicated.
FIG. 9B. Flux of fluorescently labeled dextran (3 k) was measured at the 24 h time point for conditions as described in panel A. N=4.
Since CAR plays a role in epithelial barrier, the effect of soluble JAML on epithelial barrier recovery was tested. Transepithelial resistance (TER) recovery experiments and dextran flux assay were performed with T84 cells grown in transwells (FIG. 9) as well as with Caco2 cells. […] As a negative control, a related soluble IgSF molecule SIRPalpha had no effect.

PMN = assay: Surface JAML on PMN after activation (flow cytometry); format: cell-based, human
Experimental: Freshly isolated PMN, not treated (No Tx), or treated with either fMLF (100 nM) or PMA (200 nM) in suspension for 15 minutes at 37° c. were fixed with 1% paraformaldehyde, stained for JAML (DW100) and CD11b/CD18 (CBRM 1/29) and analyzed for surface expression by flow cytometry.
Since prior to transepithelial migration PMNs exit the blood vessels, whether JAML expression on PMNs would be preserved during migration across endothelial cells (HDMECs) towards a 10 μM fMLF, as described previously was evaluated. Indeed under similar conditions only a small portion of surface JAML was lost, but most of it was still detectable on PMN surface (FIG. 3B).
Thus whether PMN activation alone is sufficient to induce the loss of surface JAML or whether direct contact with the epithelium is required was examined. To test this, the expression of JAML was analyzed on PMNs that were stimulated in suspension with fMLF (100 μM) and PMA (200 nM). PMNs were allowed to adhere to epithelial cells for 1 hour. The loss of JAML could be correlated to the degree of PMN activation. […] This was again confirmed by immunofluorescence (FIG. 4B). PMN adhesion to epithelium in the absence of proinflamatory stimulus (as measured by flow cytometry, gating on Mac-1 positive PMNs) was also sufficient to induce a partial loss of surface JAML (FIG. 4C), in agreement with the small loss of surface JAML observed after migration through endothelial cells (FIG. 3B). […] Next, the observed loss of JAML during PMN activation may be due to its shedding from PMN surface and thus would be detectable in the supernatant of activated cells. To test this hypothesis, two antibodies, DW100 and DW216 that recognize two different epitopes of JAML were used in a sandwich ELISA assay to capture solubilized molecules in the supernatant of activated PMN.

JAML binding with CAR = target: T1, JAML binding with CAR (Homo sapiens, UniProt Q86YT9); assay: CAR binding assay (ELISA, CAR-GST on immobilized sJAML-His); conditions: CAR-GST 10 μg/ml on immobilized sJAML-His preincubated with antibody; FIG. 1C
T1 construct: soluble JAMLD1D2 was truncated and tagged after residue Leucine259; made in house; host or cells: HEK293T (sJAML-His)
T1 sequence (Q86YT9 20-259): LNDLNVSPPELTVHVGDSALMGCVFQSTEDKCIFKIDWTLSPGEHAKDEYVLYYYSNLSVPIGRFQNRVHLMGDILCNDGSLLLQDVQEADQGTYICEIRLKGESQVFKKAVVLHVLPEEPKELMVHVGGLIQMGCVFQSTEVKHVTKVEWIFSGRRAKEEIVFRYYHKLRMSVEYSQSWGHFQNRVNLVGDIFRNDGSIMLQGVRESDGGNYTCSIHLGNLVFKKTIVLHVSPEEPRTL
Experimental: FIG. 1C. CAR binding assay: sJAML-His was coated in Immulon II microtiter microtiter wells overnight, at 4° C. Microtiter wells were washed and blocked and 100 μl antibody solutions were added to wells for 1 hour RT. After washing, CAR-GST was added at 10 μg/ml for 1 hour RT, washed and the assay was developed with HRP conjugated goat anti GST followed by ABTS and OD measurement at 405 nm.
(§1) Because certain antibodies recognize the membrane distal domain of JAML, their ability to inhibit binding to CAR was tested. By ELISA, the levels of soluble CAR-GST bound to immobilized sJAML-His preincubated with anti JAML antibodies was measured. […] Thus, these antibodies recognize three different epitopes on JAML and that both DW100 and DW55 bind epitopes close to the JAML binding site. Using a cell aggregation assay, the possibility that DW100 could inhibit the binding of JAML to CAR expressed on the surface of cells was examined. […] This again confirms previously described JAML binding to CAR, as well as the specificity of DW100 (blocking) and DW216 (non-blocking) Abs to JAML.

[1] = tested on: T84 epithelial monolayers; assay: Scratch wound closure of epithelial monolayers; format: cell-based, human; conditions: T84; mAb 30 μg/ml; FIG. 10A,B
Experimental: T84 epithelial monolayers grown to confluence were wounded by introduction of a single linear scratch wound using a 20-μl plastic pipette tip. Wound closure was monitored over 72 h in the absence or presence of PMN or sJAML. The scale bar is 10 μm.
Whether JAML binding to CAR would affect epithelial wound restitution was investigated. […] If soluble JAML interactions with CAR play a role, the effect could be reversed with the addition of blocking DW100 mAb.
Cell grown in 24-well tissue culture plates received one linear wound using a 20-μl plastic pipette tip attached to low suction. Wounded monolayers were washed once with PBS to remove detached cells and debris, and incubated with the appropriate stimulus added to the medium. The rate of migration was measured by determining the wound area immediately after wounding (t=0) and at the indicated time points. The data are presented as the area of the wound at each time point normalized to t=0. The experiments were carried out in triplicates per condition, and the data shown are representative of 4 independent experiments.

[2] = target: T2, CHO-JAML-His and CHO JAML-6xMyc (Homo sapiens, UniProt Q86YT9); assay: FACS staining of stably transfected CHO-JAML cell lines; format: binding; conditions: FIG. 1A
T2 construct: 6xMyc (cell line CHO JAML-6xMyc); expressed in transfected cells
T2 sequence (Q86YT9 20-394): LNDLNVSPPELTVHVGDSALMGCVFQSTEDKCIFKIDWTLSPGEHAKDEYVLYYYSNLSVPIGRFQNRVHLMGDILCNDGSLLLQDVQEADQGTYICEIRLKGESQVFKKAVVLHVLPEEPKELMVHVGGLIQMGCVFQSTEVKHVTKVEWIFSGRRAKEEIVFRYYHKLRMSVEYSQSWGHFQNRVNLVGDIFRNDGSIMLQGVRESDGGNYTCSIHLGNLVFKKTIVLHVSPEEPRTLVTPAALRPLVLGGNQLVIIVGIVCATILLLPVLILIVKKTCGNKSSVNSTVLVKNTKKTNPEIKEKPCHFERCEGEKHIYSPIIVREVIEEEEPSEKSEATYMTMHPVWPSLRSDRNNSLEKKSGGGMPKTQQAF
From the text: BALB/c mice were immunized with recombinant soluble fragment of JAML.D1D2 tagged with 10 His residues at the C-terminus (sJAML-His), generated in H293T cells and purified by Nickel chromatography. After the 4th boost, mice were given a final immunization and, 3 days later, spleen cells harvested and fused to the myeloma cell line P3U1. Hybridomas were selected in HAT medium and supernatants of clones were subjected to screening first to immobilized, soluble JAML and followed by staining of CHO-JAML stable transfectants. Three hybridomas were selected and antibodies were purified from ascites. FACS staining profiles of mAbs using two different, stably transfected CHO-JAML cell lines, CHO-JAML-His and CHO JAML-6xMyc, both membrane bound and tagged at the C-terminus with either 10-His or 6xMyc. Control antibody is 9E10 anti Myc.
These hybridomas were further tested for reactivity against tagged, full-length JAML expressed on the surface of cultured cells. CHO-JAML-6XMyc transfectants were aliquoted and pelleted into round bottom 96 well plates. 100 μl hybridoma supernatants were added for 1 hr at 4° C. Cells were washed and positive wells were identified by FACS analysis using Goat anti Mouse-AlexaFluor 488. Cells from positive wells were cloned by limiting dilution at one cell per well and expanded first in DMEM-10% FBS containing HAT then in medium containing HT (ATCC) and later DMEM, 10% FBS. The cloned cells of interest were sent to Harlan Laboratories (Indianapolis, Ind.) for production of ascites. Antibodies were purified from ascitic fluid using proteinA-Sepharose (GE Healthcare) followed by dialysis against PBS. Aliquots were frozen at −80° C. Ig subclass of each antibody was determined by using the IsoStrip Mouse Monoclonal Antibody Isotyping Kit (Roche Applied Science). […]
Cells suspensions of adherent cells were prepared by trypsinization with Trypsin-EDTA (Sigma). […] After final washes, cells were analyzed using FACS Calibur. […] All samples were stained for JAML (DW100 mAb) and CD11b/CD18 (CBRM 1/29), and only CD11b/CD18 positive cells (PMNs) were analyzed for JAML expression.

[3] = tested on: CHO-JAML and CHO-CAR cells; assay: CHO-JAML / CHO-CAR cell aggregation assay; format: cell-based; conditions: antibodies 30 μg/ml; 1 hour at 37° C.; FIG. 1D
Experimental: FIG. 1D. CHO-K1 cells stably transfected with either JAML (CHO-JAML) or CAR (CHO-CAR) proteins were allowed to aggregate (1 hour at 37° C. on a shaker at 50 RPM) separately (1×10^6 cells/BSA coated 3 ml Petri dish), or as a mix (5×10^5 each cell type/dish), in the absence or presence of anti-JAML monoclonal antibodies DW100, DW55 and DW216 (30 μg/ml). The number of clusters (left) and the area of the clusters (right) were quantified in 7 randomly chosen fields using light microscopy. The results are representative of four independent experiments. CHO-CAR and CHO-JAML in mixed cultures formed large aggregates.
as §1

How did the “epithelial barrier recovery (TER) after calcium depletion” value (T84 monolayers) turn out when “SIRPalpha: control recombinant IgSF protein, related soluble IgSF molecule [reference compound]” was run?
The value was “had no effect”.

Which results are given for fMLF?
JAML expression on PMN after fMLF (PMN; 10 μM fMLF): no significant effect on JAML expression; surface JAML on PMN after fMLF (PMN; 100 μM fMLF, FIG. 4A as described in Example 4): partial but significant loss of JAML; surface JAML on PMN after fMLF (PMN; fMLF 100 nM, suspension, 15 minutes at 37° c., FIG. 4A): partial loss of JAML

B1: DW216: monoclonal anti-human JAML antibody (IgG1,κ), non-blocking; VH SEQ ID NO:21, VL SEQ ID NO:24 (antibody, V domains shown)
VH: DVQLVESGPGLVKPSQSLSLTCTVTGYSITSDYAWNWIRQFPGNKLEWMGYISSSGNSNYNPSLKSRISITRDTSKNQFFLQLNSVTTEDTATYYCAGATGYSMDYWGQGTTLTVK
VL: VLTQSPAIMSASLGERVTMTCTASSSVSSSYLHWYQQKPGSSPKLWIYSTSNLASGVPARFSGSGSGTSYSLTISSMEAEDAATYYCHQYHRSPFTFGSGTKLELK
What does the source list for B1?
inhibition of CAR binding to JAML (JAML binding with CAR): did not inhibit at all; also recorded: whereas DW216 did not; reversal of PMN or sJAML inhibition of wound closure [1]: but not DW216 mAb (30 μg/ml) significantly improved wound restitution; FACS staining of CHO-JAML transfectant lines [2]: stained both transfectant lines equally well

B2: soluble CAR: purified extracellular domain of CAR that was tagged with GST (protein)
chain: LSITTPEEMIEKAKGETAYLPCKFTLSPEDQGPLDIEWLISPADNQKVDQVIILYSGDKIYDDYYPDLKGRVHFTSNDLKSGDASINVTNLQLSDIGTYQCKVKKAPGVANKKIHLVVLVKPSGARCYVDGSEEIGSDFKIKCEPKEGSLPLQYEWQKLSDSQKMPTSWLAEMTSSVISVKNASSEYSGTYSCTVRNRVGSDQCLLRLNVVPPSNKAG
modifications: left off: a dimerising Fc or GST
B2 was tested. Which “aggregation of mixed CHO-CAR and CHO-JAML cultures (number and size of clusters)” value [3] did it give?
Its value is “blocked”.

B3: DW55: monoclonal anti-human JAML antibody (IgG2b,κ); VH SEQ ID NO:20, VL SEQ ID NO:23 (antibody, V domains shown)
VH: CDVQLVESGGGLVQPGGSRKLSCAASGFTFSDYGMAWVRQAPGKGPEWVAFISNLAYSIYYSDTVTGRFTISRENAKNTLYLEMSSLRSEDTAMYYCARGDYSGGMMDYWGQGT
VL: VLTSQPASLAVSLGQRATISYRASKSVSTSGYSYMHWNQQKPGQPPRLLIYLVSNLESGVPARFSGSGSGTDFTLNIHPVEEEDAATYYCQHIRELTRSEGGPSWK
For B3, which “inhibition of CAR binding to JAML” value (JAML binding with CAR) is on record?
Its value is “inhibit human JAML binding with CAR; also recorded: partially inhibited binding; also recorded: partly inhibitory”.

What about the “FACS staining of CHO-JAML transfectant lines” value [2] of the same molecule?
Its value is “stained both transfectant lines equally well”.

Reference: US10465005B2, “JAML specific binding agents, antibodies, and uses related thereto” (Emory University, priority 2011, dated 2019)
